Target: T1, MRM3 (human (endogenous in HEK293)), Q9HC36
T1 chain: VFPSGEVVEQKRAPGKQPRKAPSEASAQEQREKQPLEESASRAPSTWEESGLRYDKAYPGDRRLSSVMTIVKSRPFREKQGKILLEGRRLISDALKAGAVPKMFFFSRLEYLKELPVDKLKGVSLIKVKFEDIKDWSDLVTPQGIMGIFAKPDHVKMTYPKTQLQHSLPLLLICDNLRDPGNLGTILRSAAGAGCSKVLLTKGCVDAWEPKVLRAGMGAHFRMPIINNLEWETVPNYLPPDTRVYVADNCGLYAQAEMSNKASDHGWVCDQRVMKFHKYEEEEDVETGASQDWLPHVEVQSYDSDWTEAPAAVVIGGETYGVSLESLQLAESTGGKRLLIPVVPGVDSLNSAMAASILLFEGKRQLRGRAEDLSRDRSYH
Assay: cryo-EM structure; native 39S pre-mitoribosomal particles isolated by anti-Flag affinity purification (MALSU1 or GTPBP10 bait; state 1 also with particles from a uL17 bait) from HEK293 cells; single-particle analysis, average resolutions between 3.1 Å and 5.7 Å; factors fitted as rigid-body homology models or crystal structures
Details: remark: other sources report otherwise

B1: MRM3, Q9HC36 41-420 (natural protein)
chain: T1 chain
stoichiometry N: 2

From paper PMC8316566
